These results are taken from US20210171638A1 (HISUN BIORAY PHARMACEUTICAL, published 2021).

One assay concerns the target T1, Human PD-L1 (R&D) (human, UniProt Q9NZQ7 19-239, limits assumed).
T1 construct: Bought recombinant protein coated on ELISA plates; construct not described; also called human PD-L1 protein
As to the kind of experiment: ELISA, human PD-L1 coated at 5 µg/ml, anti-human Fc-HRP, OD600. On the procedure: (§1) In this Example, ELISA assay was used to determine binding of the candidate antibody to human, monkey, and mouse PD-L1.
(§2) After incubation overnight at 4° C., the coating solution was discarded the next day and washed with PBST. 200 μl of BSA blocking solution was added into each well and incubated for 1 h at room temperature. […] Then 100 μl of antibody was added into each well and incubated for 2 h at room temperature. Washing was performed three times with PBST, and anti-human Fc-HRP antibody (Sino Biological) was added and incubated for 1 h at room temperature. Finally, each well was washed four times with PBST, TMB color developing solution (Beijing Tiangen BioTech) was added, and the color was developed at room temperature. After the color development was stopped, the OD value was determined with a microplate reader at 600 nm.
Background: In an ELISA, binding on a coated surface is turned into a signal by an enzyme label.

For a further assay, the target named is T2, Monkey PD-L1 (R&D) (monkey).
T2 construct: Bought recombinant protein coated on ELISA plates; construct and monkey species not described; also called monkey PD-L1 protein
As to the kind of experiment: ELISA, monkey PD-L1 coated at 5 µg/ml, anti-human Fc-HRP, OD600. How it is done:
as §1, §2

Assay [1] addresses T3, hPD-L1-Fc protein (R&D) (human, UniProt Q9NZQ7 19-239).
T3 construct: construct not described; not shown: Fc part
The assay can be described thus: blocking ELISA: hPD-L1-Fc coated at 1 µg/mL, B11 dilutions mixed 1:1 with hPD-1-Fc-Biotin (0.25 µg/mL), avidin-HRP, OD450.

Another assay deals with T4, Mouse PD-L1 (R&D) (mouse, UniProt Q9EP73 19-238, limits assumed).
T4 construct: Bought recombinant protein coated on ELISA plates; construct not described; also called mouse PD-L1 protein
The assay can be described thus: ELISA, mouse PD-L1 coated at 5 µg/ml, anti-human Fc-HRP, OD600. How it is done:
as §1, §2

For assay [2], the target named is T5, Recombinant His-tagged PD-L1 (Homo sapiens (Human), UniProt Q9NZQ7 19-238).
T5 construct: also called target antigen
As to the kind of experiment: BIAcore SPR, antibody captured by anti-human IgG on CM5 chip, His-tagged PD-L1 as analyte, 1:1 fit. How it is done:
In this Example, BIAcore is used to determine antibody affinity. In this experiment, the human antibody capture kit (GE, BR100839) was used to couple the anti-human IgG antibody to the S series CM5 sensor chip (GE, BR100530) through amino before the ligand and analyte binding. Recombinant anti-PD-L1 antibodies, B10, B11, and H12 were diluted with HBS-EP+Buffer as ligands. The recombinant His-tagged PD-L1 was diluted with HBS-EP+Buffer to 8 μg/ml, 4 μg/ml, 1.6 μg/ml, 0.64 μg/ml, 0.256 μg/ml and 0.102 μg/ml as analytes. In Biacore Wizard mode, affinity analysis experiments were performed in a multi-cycle manner. The test of each sample included 3 Start up, 1 zero concentration control, 6 gradient concentration samples and 1 repeated concentration sample. After each cycle, 10 mM Glycine HCl PH2.1 regeneration solution is used to regenerate the chip. Each concentration cycle of the analyte was set as follows: capture time 180s, ligand solution flow rate 10 μl/min, ligand and analyte binding time 180 s, analyte solution flow rate 30 μl/min; dissociation time 2400 s. Raw data was introduced into the analysis software, the zero concentration control was subtracted, and the reference channel was subtracted to eliminate the volume effect. The 1:1 binding mode in the Kinetics analysis method was used to fit the graph and the affinity data of the antigen antibody was calculated by regression analysis using the analysis software based on the binding curve.
Background: SPR reads the build-up and loss of mass on a sensor chip optically.

The target in assay [3] is T3, hPD-L1-Fc protein (R&D). As to the kind of experiment: blocking ELISA: hPD-L1-Fc coated at 1 µg/mL, B11 dilutions mixed 1:1 with CD80-Biotin (0.25 µg/mL), avidin-HRP, OD450.

T1 sequence (Q9NZQ7 19-239 limits assumed): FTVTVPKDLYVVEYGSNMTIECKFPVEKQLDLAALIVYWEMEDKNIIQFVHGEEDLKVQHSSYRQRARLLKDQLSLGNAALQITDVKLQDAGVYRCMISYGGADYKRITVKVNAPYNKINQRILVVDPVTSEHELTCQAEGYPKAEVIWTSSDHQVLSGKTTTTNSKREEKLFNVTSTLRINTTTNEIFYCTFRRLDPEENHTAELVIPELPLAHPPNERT
T5 sequence (Q9NZQ7 19-238 limits assumed): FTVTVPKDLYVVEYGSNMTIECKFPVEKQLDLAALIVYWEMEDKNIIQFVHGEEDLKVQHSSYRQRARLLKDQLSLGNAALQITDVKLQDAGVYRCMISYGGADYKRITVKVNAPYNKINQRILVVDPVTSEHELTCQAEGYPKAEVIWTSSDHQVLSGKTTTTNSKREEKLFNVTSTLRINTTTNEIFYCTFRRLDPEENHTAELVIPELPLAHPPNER
T4 sequence (Q9EP73 19-238 limits assumed): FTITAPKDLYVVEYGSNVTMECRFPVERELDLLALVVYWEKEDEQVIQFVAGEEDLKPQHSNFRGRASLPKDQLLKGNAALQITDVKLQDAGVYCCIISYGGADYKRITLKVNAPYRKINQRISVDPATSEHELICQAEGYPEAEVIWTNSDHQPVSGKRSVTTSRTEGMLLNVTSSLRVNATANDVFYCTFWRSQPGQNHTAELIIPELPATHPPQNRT
T3 sequence (Q9NZQ7 19-239 limits assumed): as the sequence (Q9NZQ7 19-239 limits assumed) above

B1: Anti-PD-L1 Antibody B11 (antibody, V domains shown)
VH: EVQLVESGGGLVQPGGSLRLSCAASGFTFSETWLHWVRQAPGKGLEWVAWVSPFGGSTYYADSVKGRFTISADTSKNTAYLQMNSLRAEDTAVYYCARRHWPGGFDYWGQGTLVTVSS
VL: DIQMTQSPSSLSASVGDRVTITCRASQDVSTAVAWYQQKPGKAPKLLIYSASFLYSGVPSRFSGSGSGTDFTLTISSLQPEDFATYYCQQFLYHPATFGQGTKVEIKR
notes: also called HZPDL1-B11
For B1, the EC50 (usually the midpoint of the concentration-response curve) in the assay with Human PD-L1 (R&D) came out at 1.03 pM; with Monkey PD-L1 (R&D), 0.495 pM; in the assay with Mouse PD-L1 (R&D), 0.407 pM. The entries for the “IC50 (read off the curve)” value with hPD-L1-Fc protein (R&D) [1] and with hPD-L1-Fc protein (R&D) [3] were roughly 0.3 µg/mL and roughly 0.2 µg/mL, respectively. Besides, the Kd (as a rule, the equilibrium constant for the complex coming apart) in assay [2] turned out to be 629 pM. For the same molecule, in assay [2], the koff – broadly, the rate constant with which the complex falls apart – was 0.000857 s⁻¹. Also, the kon (usually a measure of how fast the partners come together) in assay [2] turned out to be 1.36e+06 M⁻¹ s⁻¹.

B2: Anti-PD-L1 Antibody H12 (antibody, V domains shown)
VH: EVQLVESGGGLVQPGGSLRLSCAASGFTFSESWLHWVRQAPGKGLEWVAWVTPYGGSTYYADSVKGRFTISADTSKNTAYLQMNSLRAEDTAVYYCARRHWPGGFDYWGQGTLVTVSS
VL: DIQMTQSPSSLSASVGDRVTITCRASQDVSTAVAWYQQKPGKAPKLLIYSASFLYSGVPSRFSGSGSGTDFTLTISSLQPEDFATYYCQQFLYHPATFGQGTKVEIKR
notes: also called HZPDL1-H12
For the molecule B2, the EC50 with Human PD-L1 (R&D) is 1.4 pM; in the assay with Monkey PD-L1 (R&D), 0.551 pM; in the assay with Mouse PD-L1 (R&D), 0.483 pM. The Kd in assay [2] was 2190 pM. The koff in assay [2] came out at 0.00261 s⁻¹. In addition, the kon in assay [2] came out at 1.19e+06 M⁻¹ s⁻¹.

B3: Anti-PD-L1 Antibody B10 (antibody, V domains shown)
VH: not shown
VL: DIQMTQSPSSLSASVGDRVTITCRASQDVSTAVAWYQQKPGKAPKLLIYSASFLYSGVPSRFSGSGSGTDFTLTISSLQPEDFATYYCQQFIFHPATFGQGTKVEIKR
notes: also called HZPDL1-B10
Turning to B3, the results for the EC50 in the assay with Human PD-L1 (R&D), with Monkey PD-L1 (R&D) and with Mouse PD-L1 (R&D) were 1.97 pM, 2.65 pM and 0.906 pM, respectively. The Kd in assay [2] came to 1640 pM. In addition, the koff in assay [2] came to 0.00236 s⁻¹. Also, in assay [2], the kon stood at 1.44e+06 M⁻¹ s⁻¹.
